# In the supplement of paper PMC7877785:
# ± gives the uncertainty stated by the source.
# Test: self-splicing fitness, log relative to wild type (ln ratio); higher = more splicing; Tetrahymena group I intron in knt gene, E. coli kanamycin selection, DiMSum; sequences stand for … in CUCUCU…GGAGGGAAAAGUUAUCAGGCAUGCACCUGGUAGCUAGUCUUUAAACCAAUAGAUUGCAUCGGUUUAAAAGGCAAGACCGUCAAAUUGCGGGAAAGGGGUCAACAGCCGUUCAGUACCAAGUCUCAGGGGAAACUUUGAGAUGGCCUUGCAAAGGGUAUGGUAAUAAGCUGACGGACAUGGUCCUAACCACGCAGCCAAGUCCUAAGUCAACAGAUCUUCUGUUGAUAUGGAUGCAGUUCACAGACUAAAUGUCGGUCGGGGAAGAUGUAUUCUUCUCAUAAGAUAUAGUCGGACCUCUCCUUAAUGGGAGCUAGCGGAUGAAGUGAUGCAACACUGGAGCCGCUGGGAACUAAUUUGUAUGCGAAAGUAUAUUGAUUAGUUUUGGAGUACUCGUGGUCG
# Outline: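 Six replicate transformations of E. coli BL21(DE3) with a pET-22b(+) library were grown overnight at 37°C or 30°C. The library randomised all eight P1ex-region intron nucleotides, the intron lying in the knt kanamycin-resistance gene, and plates were LB agar with or without 25 μg/mL kanamycin plus 100 μg/mL carbenicillin, 50 μM IPTG and 0.2% rhamnose. Pooled colonies were amplicon-sequenced on an Illumina HiSeq 2500, and fitness is the DiMSum error-weighted combination of wild-type-normalised replicate fold changes, kanamycin versus none.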
Sequence,self-splicing fitness (ln) (30 °C),self-splicing fitness (ln) (37 °C)
ACUGAGCAAUAUUACGCGCC,-2.73 ± 0.33,
GACCAGCAAUAUUACGUUUA,-0.372 ± 0.051,-0.0736 ± 0.062
GAUAAGCAAUAUUACGUAGA,-3.26 ± 0.22,-0.548 ± 0.14
GGGUAGCAAUAUUACGGGAG,-2.54 ± 0.28,-1.44 ± 0.25
AAUAAGCAAUAUUACGUCAA,-2.29 ± 0.14,-2.06 ± 0.12
AAUCAGCAAUAUUACGACCU,0.207 ± 0.09,0.538 ± 0.096
CACGAGCAAUAUUACGACCU,-2.18 ± 0.17,-2.27 ± 0.27
GGGCAGCAAUAUUACGUUUC,-2.2 ± 0.094,-0.672 ± 0.098
CGUGAGCAAUAUUACGCGUA,,-1.86 ± 0.47
GAGGAGCAAUAUUACGGCAU,,-1.87 ± 0.46
AGGGAGCAAUAUUACGUUUC,,-2.44 ± 0.24
ACUGAGCAAUAUUACGAUAU,-4.44 ± 0.36,-2.8 ± 0.2
CCGUAGCAAUAUUACGCCUC,-1.88 ± 0.44,-1.82 ± 0.35
UCGCAGCAAUAUUACGCUCU,-3.55 ± 0.23,-1.35 ± 0.13
UGCGAGCAAUAUUACGGGAG,-4.04 ± 0.19,-2.61 ± 0.17
GCGUAGCAAUAUUACGGCGA,-0.0106 ± 0.13,0.378 ± 0.16
AAGAAGCAAUAUUACGCUAG,-2.36 ± 0.14,-0.458 ± 0.13
UAAUAGCAAUAUUACGGAAA,,-2.44 ± 0.26
GAGCAGCAAUAUUACGGAGU,-3.32 ± 0.26,-3.07 ± 0.4
UUUAAGCAAUAUUACGCGGU,-3.46 ± 0.26,-1.85 ± 0.23
CUAAAGCAAUAUUACGUUCA,-3.24 ± 0.12,-1.56 ± 0.15
UUUUAGCAAUAUUACGGUCG,-0.778 ± 0.2,-0.345 ± 0.18
AGUUAGCAAUAUUACGAUGU,-1.48 ± 0.096,-0.307 ± 0.11
CUAGAGCAAUAUUACGUCCC,,-1.71 ± 0.47
CGCCAGCAAUAUUACGCUCG,-2.21 ± 0.13,-0.347 ± 0.14
UGUGAGCAAUAUUACGCCUA,-0.115 ± 0.23,

Sequence,self-splicing fitness (ln) (30 °C),self-splicing fitness (ln) (37 °C)
GGGCAGCAAUAUUACGUAUG,-3.15 ± 0.23,-1.44 ± 0.22
AUUUAGCAAUAUUACGAAAU,-2 ± 0.31,-1.54 ± 0.27
UUAUAGCAAUAUUACGUACA,-1.06 ± 0.16,-0.0284 ± 0.16
UGGCAGCAAUAUUACGAUGG,-1.48 ± 0.17,-1.67 ± 0.18
ACGAAGCAAUAUUACGAUCC,-1.12 ± 0.1,-0.136 ± 0.14
CGGGAGCAAUAUUACGUAUC,-2.58 ± 0.49,
AAGAAGCAAUAUUACGGCAC,-0.764 ± 0.08,-0.298 ± 0.12
CGAGAGCAAUAUUACGUGCC,,-2.05 ± 0.38
AAUGAGCAAUAUUACGCACU,-1.07 ± 0.11,0.105 ± 0.15
CACAAGCAAUAUUACGUAAU,-3.79 ± 0.14,-1.65 ± 0.1
CUGUAGCAAUAUUACGUCAA,-2.56 ± 0.19,-1.85 ± 0.19
GUUAAGCAAUAUUACGAAGU,-2.06 ± 0.18,-1.45 ± 0.23
CGUCAGCAAUAUUACGGACA,-0.0785 ± 0.094,0.394 ± 0.15
AGCAAGCAAUAUUACGCGAU,-3.51 ± 0.37,-0.149 ± 0.18
GAAAAGCAAUAUUACGGUGG,-3.78 ± 0.2,-1.66 ± 0.15
AUUAAGCAAUAUUACGAGAA,,-1.08 ± 0.38
UGCGAGCAAUAUUACGCCGC,-3.34 ± 0.36,-1.3 ± 0.43
UAGCAGCAAUAUUACGGCCU,-0.225 ± 0.093,0.118 ± 0.12
CCUUAGCAAUAUUACGGACG,-1 ± 0.13,-0.586 ± 0.17
CACGAGCAAUAUUACGAAGG,-3.2 ± 0.19,-2.01 ± 0.26
CCCAAGCAAUAUUACGGGGG,-3.6 ± 0.13,-3 ± 0.19
AUUAAGCAAUAUUACGAGAU,-2.99 ± 0.21,-1.47 ± 0.16
GGCAAGCAAUAUUACGACAG,-3.74 ± 0.22,-2.63 ± 0.24
GGACAGCAAUAUUACGUAAC,-0.0173 ± 0.1,-0.0671 ± 0.14
UUACAGCAAUAUUACGAGAA,-1.83 ± 0.2,-1.59 ± 0.2
